Where two headings read alike, the source gives them in different places.
Tests used:
[1] = biological target: T1, EGFR on BxPC-3 cells (UniProt P00533 25-1210, limits assumed); experiment: cell-based or functional assay
[2] = biological target: T2, His-tagged human EGFR (human, UniProt P00533 25-645, limits assumed); experiment: BLI (Octet), scFv-His coupled to AR2G sensors, His-tagged human EGFR in solution, 1:1 global fit
T2 construct: also called huEGFR
Description: (§1) Fc-containing protein was captured to anti-human Fc (AHC) sensor tips by loading for 180 seconds at 10 μg/ml. Alternatively, His-tagged proteins were covalently coupled at 10 ug/ml to AR2G tips using manufacturer protocol. After a 60-second baseline step, a 180- to 300-second association phase with serial dilutions (0-200 nM; 1:2.5 dilution factor) or a single 100 nM concentration of purified human EGFR in assay buffer (phosphate-buffered saline containing 0.1% BSA, 0.05% Tween20) was performed, followed by a 300- to 600—second dissociation phase in assay buffer. Regeneration was achieved using 10 mM glycine, pH 1.5. Binding curves were globally fit to a 1:1 model to extract the dissociation constants, KD. Binding kinetics for each protein were assessed in duplicate, with tabulated values reported as average±standard deviation.

[3] = biological target: T2, His-tagged human EGFR; experiment: as above; remark: listed apart in the source
Description: as §1

[4] = biological target: T1, EGFR on BxPC-3 cells; experiment: cell-based or functional assay; remark: listed apart in the source

B1: SI-68P17 (other)
heavy: DVVMTQSPSTLSASVGDRVTINCQASESISSWLAWYQQKPGKAPKLLIYEASKLASGVPSRFSGSGSGTEFTLTISSLQPDDFATYYCQGYFYFISRTYVNSFGGGTKVEIKGGGGSGGGGSGGGGSGGGGSEVQLVESGGGLVQPGGSLRLSCAASGFTISTNAMSWVRQAPGKGLEWIGVITGRDITYYASWAKGRFTISRDNSKNTLYLQMNSLRAEDTAVYYCARDGGSSAITSNNIWGQGTLVTVSSGGGGSGGGGSQVQLQQSGPGLVKPSETLSITCTVSGFSLTNYGVHWIRQAPGKGLEWLGVIWSGGNTDYNTPFTSRFTITKDNSKNQVYFKLRSVRADDTAIYYCARALTYYDYEFAYWGQGTLVTVSSASTKGPSVFPLAPSSKSTSGGTAALGCLVKDYFPEPVTVSWNSGALTSGVHTFPAVLQSSGLYSLSSVVTVPSSSLGTQTYICNVNHKPSNTKVDKRVEPKSCDKTHTCPPCPAPEAAGGPSVFLFPPKPKDTLMISRTPEVTCVVVDVSHEDPEVKFNWYVDGVEVHNAKTKPREEQYNSTYRVVSVLTVLHQDWLNGKEYKCAVSNKALPAPIEKTISKAKGQPREPQVYTLPPSRDELTKNQVSLSCAVKGFYPSDIAVEWESNGQPENNYKTTPPVLDSDGSFFLVSKLTVDKSRWQQGNVFSCSVMHEALHNHYTQKSLSLSPGGGGGSGGGGSDVVMTQSPSSVSASVGDRVTITCQASQNIRTYLSWYQQKPGKAPKLLIYAAANLASGVPSRFSGSGSGTDFTLTISDLEPGDAATYYCQSTYLGTDYVGGAFGGGTKLTVLGGGGSGGGGSGGGGSGGGGSEVQLVESGGGLVQPGGSLRLSCTASGFTISSYHMQWVRQAPGKGLEYIGTISSGGNVYYASSARGRFTISRPSSKNTVDLQMNSLRAEDTAVYYCARDSGYSDPMWGQGTLVTVSS
light: ENVLTQSPASLSASPGERVTITCSASSSVSYMHWYQQKPGQAPKLWIYDTSKLASGVPSRFSGSGSGNDHTLTISSMEPEDFATYYCFQGSVYPFTFGQGTKVTVLGGGGSGGGGSGGGGSGGGGSQVTLKESGPGLVQPGQTLSLTCAFSGFSLSTSGMGVGWIRQPPGKGLEWLAHIWWDDDKRYNPALKSRLTISKDTSKNQVYLQMNSLDAEDTAVYYCARMELWSYYFDYWGQGTLVTVSSGGGGSGGGGSEIVLTQSPSTLSVSPGERATFSCRASQSIGTNIHWYQQKPGKPPRLLIKYASESISGIPDRFSGSGSGTEFTLTISSVQSEDFAVYYCQQNNNWPTTFGPGTKLTVLRTVAAPSVFIFPPSDEQLKSGTASVVCLLNNFYPREAKVQWKVDNALQSGNSQESVTEQDSKDSTYSLSSTLTLSKADYEKHKVYACEVTHQGLSSPVTKSFNRGECGGDKTHTCPPCPAPEAAGGPSVFLFPPKPKDTLMISRTPEVTCVVVDVSHEDPEVKFNWYVDGVEVHNAKTKPREEQYNSTYRVVSVLTVLHQDWLNGKEYKCAVSNKALPAPIEKTISKAKGQPREPQVYTLPPSRDELTKNQVSLWCLVKGFYPSDIAVEWESNGQPENNYKTTPPVLDSDGSFFLYSKLTVDKSRWQQGNVFSCSVMHEALHNRFTQKSLSLSPGGGGGSGGGGSDIQMTQSPSTLSASVGDRVTITCQASQSISSHLNWYQQKPGKAPKLLIYKASTLASGVPSRFSGSGSGTEFTLTISSLQPDDFATYYCQQGYSWGNVDNVFGGGTKVTVLGGGGSGGGGSGGGGSGGGGSEVQLLESGGGLVQPGGSLSLSCAASGFSFSSGYDMCWVRQAPGKGLEWIACIAAGSAGITYDANWAKGRFTISRDNSKNTLYLQMNSLRAEDTAVYYCARSAFSFDYAMDLWGQGTLVTVSS
TDCC EC50 (pM) [1]: 0.322 pM

B2: SI-68P13 (other)
heavy: EIVLTQSPSTLSVSPGERATFSCRASQSIGTNIHWYQQKPGKPPRLLIKYASESISGIPDRFSGSGSGTEFTLTISSVQSEDFAVYYCQQNNNWPTTFGPGTKLTVLGGGGSGGGGSGGGGSGGGGSQVQLQQSGPGLVKPSETLSITCTVSGFSLTNYGVHWIRQAPGKGLEWLGVIWSGGNTDYNTPFTSRFTITKDNSKNQVYFKLRSVRADDTAIYYCARALTYYDYEFAYWGQGTLVTVSSGGGGSGGGGSEVQLVESGGGLVQPGGSLRLSCAASGFTISTNAMSWVRQAPGKGLEWIGVITGRDITYYASWAKGRFTISRDNSKNTLYLQMNSLRAEDTAVYYCARDGGSSAITSNNIWGQGTLVTVSSASTKGPSVFPLAPSSKSTSGGTAALGCLVKDYFPEPVTVSWNSGALTSGVHTFPAVLQSSGLYSLSSVVTVPSSSLGTQTYICNVNHKPSNTKVDKRVEPKSCDKTHTCPPCPAPEAAGGPSVFLFPPKPKDTLMISRTPEVTCVVVDVSHEDPEVKFNWYVDGVEVHNAKTKPREEQYNSTYRVVSVLTVLHQDWLNGKEYKCAVSNKALPAPIEKTISKAKGQPREPQVYTLPPSRDELTKNQVSLSCAVKGFYPSDIAVEWESNGQPENNYKTTPPVLDSDGSFFLVSKLTVDKSRWQQGNVFSCSVMHEALHNHYTQKSLSLSPGGGGGSGGGGSDVVMTQSPSSVSASVGDRVTITCQASQNIRTYLSWYQQKPGKAPKLLIYAAANLASGVPSRFSGSGSGTDFTLTISDLEPGDAATYYCQSTYLGTDYVGGAFGGGTKLTVLGGGGSGGGGSGGGGSGGGGSEVQLVESGGGLVQPGGSLRLSCTASGFTISSYHMQWVRQAPGKGLEYIGTISSGGNVYYASSARGRFTISRPSSKNTVDLQMNSLRAEDTAVYYCARDSGYSDPMWGQGTLVTVSS
light: ENVLTQSPASLSASPGERVTITCSASSSVSYMHWYQQKPGQAPKLWIYDTSKLASGVPSRFSGSGSGNDHTLTISSMEPEDFATYYCFQGSVYPFTFGQGTKVTVLGGGGSGGGGSGGGGSGGGGSQVTLKESGPGLVQPGQTLSLTCAFSGFSLSTSGMGVGWIRQPPGKGLEWLAHIWWDDDKRYNPALKSRLTISKDTSKNQVYLQMNSLDAEDTAVYYCARMELWSYYFDYWGQGTLVTVSSGGGGSGGGGSDVVMTQSPSTLSASVGDRVTINCQASESISSWLAWYQQKPGKAPKLLIYEASKLASGVPSRFSGSGSGTEFTLTISSLQPDDFATYYCQGYFYFISRTYVNSFGGGTKVEIKRTVAAPSVFIFPPSDEQLKSGTASVVCLLNNFYPREAKVQWKVDNALQSGNSQESVTEQDSKDSTYSLSSTLTLSKADYEKHKVYACEVTHQGLSSPVTKSFNRGECGGDKTHTCPPCPAPEAAGGPSVFLFPPKPKDTLMISRTPEVTCVVVDVSHEDPEVKFNWYVDGVEVHNAKTKPREEQYNSTYRVVSVLTVLHQDWLNGKEYKCAVSNKALPAPIEKTISKAKGQPREPQVYTLPPSRDELTKNQVSLWCLVKGFYPSDIAVEWESNGQPENNYKTTPPVLDSDGSFFLYSKLTVDKSRWQQGNVFSCSVMHEALHNRFTQKSLSLSPGGGGGSGGGGSDIQMTQSPSTLSASVGDRVTITCQASQSISSHLNWYQQKPGKAPKLLIYKASTLASGVPSRFSGSGSGTEFTLTISSLQPDDFATYYCQQGYSWGNVDNVFGGGTKVTVLGGGGSGGGGSGGGGSGGGGSEVQLLESGGGLVQPGGSLSLSCAASGFSFSSGYDMCWVRQAPGKGLEWIACIAAGSAGITYDANWAKGRFTISRDNSKNTLYLQMNSLRAEDTAVYYCARSAFSFDYAMDLWGQGTLVTVSS
TDCC EC50 (pM) [1]: 0.259 pM

B3: SI-79R2 (scFv)
scFv: EIVMTQSPSTLSASVGDRVIITCRASQSIGTNIHWYQQKPGKAPKLLIYYASESISGIPSRFSGSGSGAEFTLTISSLQPDDFATYYCQQNNNWPTTFGQGTKLTVLGGGGSGGGGSGGGGSGGGGSEVQLVESGGGLVQPGGSLRLSCTVSGFSLTNYGVHWVRQAPGKGLEWVGVIWSGGNTDYNTPFTSRFTISRDTSKNTVYLQMNSLRAEDTAVYYCARALTYYDYEFAYWGQGTLVTVSSGSHHHHHH
notes: the entry holds the whole construct; also called H1 scFv-6His; humanized scFv
Kd [2]: 12 nM
koff [2]: 0.0107 s⁻¹
kon [2]: 894000 M⁻¹ s⁻¹
Kd [3]: 12 nM

B4: SI-79X3 (bispecific antibody, human IgG1, kappa)
heavy 1: QVQLQQSGPGLVKPSETLSITCTVSGFSLTNYGVHWIRQAPGKGLEWLGVIWSGGNTDYNTPFTSRFTITKDNSKNQVYFKLRSVRADDTAIYYCARALTYYDYEFAYWGQGTLVTVSSASTKGPSVFPLAPSSKSTSGGTAALGCLVKDYFPEPVTVSWNSGALTSGVHTFPAVLQSSGLYSLSSVVTVPSSSLGTQTYICNVNHKPSNTKVDKRVEPKSCDKTHTCPPCPAPEAAGAPSVFLFPPKPKDTLMISRTPEVTCVVVDVSHEDPEVKFNWYVDGVEVHNAKTKPREEQYNSTYRVVSVLTVLHQDWLNGKEYKCAVSNKALPAPIEKTISKAKGQPREPQVYTLPPSRDELTKNQVSLTCLVKGFYPSDIAVEWESNGQPENNYKTTPPVLDSDGSFFLYSRLTVDKSRWQQGNVFSCSVMHEALHNHYTQKSLSLSPG
heavy 2: not shown
light 1: EIVLTQSPSTLSVSPGERATFSCRASQSIGTNIHWYQQKPGKPPRLLIKYASESISGIPDRFSGSGSGTEFTLTISSVQSEDFAVYYCQQNNNWPTTFGPGTKLTVLRTVAAPSVFIFPPSDEQLKSGTASVVCLLNNFYPREAKVQWKVDNALQSGNSQESVTEQDSKDSTYSLSSTLTLSKADYEKHKVYACEVTHQGLSSPVTKSFNRGEC
light 2: not shown
*EC50 (pM), TDCC, depletion of luciferized BxPC3 cells with activated T cells [4]: 20.3 pM

Source: patent US20250353917A1 (SYSTIMMUNE, published 2025)
